Source: article PMC7948409

How the values were obtained:
[1] = target: F-actin (actin filaments) from rabbit leg and back muscle (UniProt P68135); experiment: single-molecule TIRF microscopy; in vitro motility assay under TIRF; HMM (342.8 nM incubation) on TMCS glass; Alexa-488 phalloidin F-actin propelled with 1 mM MgATP; 5 nM Alexa-647 gelsolin; pCa 8.2; 23 °C; settings: other: single-molecule TIRF microscopy
[2] = target: F-actin (actin filaments) from rabbit leg and back muscle (rabbit) (UniProt P68135); experiment: as above
[3] = target: F-actin (actin filaments) from rabbit leg and back muscle (rabbit) (UniProt P68135); experiment: single-molecule TIRF microscopy; HMM (34.2 nM incubation) adsorbed on TMCS glass; rhodamine phalloidin F-actin (5 nM) held stationary in rigor, no MgATP; 5 nM Alexa-647 gelsolin in solution; no added Ca2+ (pCa > 9); 23 °C; 9 min observation

| Substance | percent of sliding filaments with bound gelsolin, corrected for the labeling efficiency [1] | gelsolin molecules bound per filament [2] | percent of HMM-propelled actin filaments with bound labeled gelsolin [2] | gelsolin attachments per filament during 9 min [3] |
| --- | --- | --- | --- | --- |
| Alexa-647-labeled gelsolin (His-tagged recombinant full-length human cytoplasmic gelsolin) | approximately 55% of all sliding filaments have bound gelsolin |  |  |  |
| Alexa-647-labeled gelsolin (His-tagged recombinant full-length human cytoplasmic gelsolin) (natural protein) |  | 1 per filament | 36.5% | 1.7 per filament |
